# Results: patent publication US20160280799
# B1: human MMP-12 catalytic domain (protein)
# chain: GPVWRKHYITYRINNYTPDMNREDVDYAIRKAFQVWSNVTPLKFSKINTGMADILVVFARGAHGDFHAFDGKGGILAHAFGPGSGIGGDAHFDEDEFWTTHSGGTNLFLTAVHEIGHSLGLGHSSDPKAVMFPTYKYVDINTFRLSADDIRGIQSLYG
# Molecular target: All other MMP-12 binders
protein,measurement,value
B1,"MMP-12 proteolytic activity, colorimetric assay (BIOMOL AK-402), VHH at 7 µM",did not inhibit MMP-12
